Measured values reported in US20260250325A1, “Antiviral Polypeptide Membrane Fusion Inhibitor, and Preparation Method and Application Thereof” (priority 2025, published 2026).

T1: F protein of RSV A long virus strain (respiratory syncytial virus, RSV A long virus strain), P12568
T1 chain: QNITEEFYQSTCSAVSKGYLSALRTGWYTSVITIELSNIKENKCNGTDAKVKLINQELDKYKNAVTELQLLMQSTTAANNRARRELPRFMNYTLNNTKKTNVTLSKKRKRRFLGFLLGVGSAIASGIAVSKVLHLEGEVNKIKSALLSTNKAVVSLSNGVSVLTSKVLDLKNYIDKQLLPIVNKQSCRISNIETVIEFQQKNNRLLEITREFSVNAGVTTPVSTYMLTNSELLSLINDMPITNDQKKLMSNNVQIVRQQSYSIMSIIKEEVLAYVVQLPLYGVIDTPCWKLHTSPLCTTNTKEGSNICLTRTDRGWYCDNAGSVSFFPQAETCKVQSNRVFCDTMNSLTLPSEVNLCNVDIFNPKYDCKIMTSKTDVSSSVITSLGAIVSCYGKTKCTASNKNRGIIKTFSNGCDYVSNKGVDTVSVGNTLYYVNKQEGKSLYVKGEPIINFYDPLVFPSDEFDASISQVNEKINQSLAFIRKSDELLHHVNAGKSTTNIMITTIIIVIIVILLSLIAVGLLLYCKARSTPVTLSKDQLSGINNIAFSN


target: hPIV-N51 (139-189) (human parainfluenza virus (hPIV)); experiment: not given
Sequence (P06828 139-189): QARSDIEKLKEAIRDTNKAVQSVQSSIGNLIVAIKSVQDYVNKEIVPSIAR

Row | Binder | Kd [nM]
1 | FDASIEEVNRRIEESLRRIEESDRRLEEVNAEAAAKK (modifications not checked) [Compound 42] | 485
2 | LVKKIDEFDASISQVNEKINQSLEEIRKSDELLHNVGSGSGK (modifications not checked) [Compound 29] | 1730
3 | WDEFDASISQVNEKINQSLEEIRKSDELLHNVNAGLGSGSGK (modifications not checked) [Compound 27] | 812
4 | DEFDASISQVNEKINQSLEEIRKSDELLHNEAAAKK (modifications not checked) [Compound 28] | 983000
5 | WDEFDKKIEEVNKKIEESLKKIEESDKKLEEVNAEAAAKK (modifications not checked) [Compound 40] | 2270
6 | WDEFDASIEEVNRRIEESLRRIEESDRRLEEVEAAAKK (modifications not checked) [Compound 43] | 5720
7 | YDELVFDASQVNEKINQSLEKIRKSDELLHNVEAAAKK (modifications not checked) [Compound 30] | 1020
8 | WDEFDASISQVNEKINQSLEEIRKSDELLHNVNALEAAAKK (modifications not checked) [Compound 38] | 24500
9 | WDEFDKKIEEVNKKIEESLKKIEESDKKLEEVNEAAAKK (modifications not checked) [Compound 41] | 492

substrate: F protein of hMPV virus strain A2 (human metapneumovirus, strain A2); experiment: cell-based or functional assay

Row | Binder | EC50 (nM), plaque reduction, hMPV A2, Vero cells [nM]
10 | FDASIEEVNRRIEESLRRIEESDRRLEEVNAEAAAKK (modifications not checked) [Compound 42] | 26.1
11 | LVKKIDEFDASISQVNEKINQSLEEIRKSDELLHNVGSGSGK (modifications not checked) [Compound 29] | 41.6
12 | WDEFDASISQVNEKINQSLEEIRKSDELLHNVNAGLGSGSGK (modifications not checked) [Compound 27] | 78.3
13 | DEFDASISQVNEKINQSLEEIRKSDELLHNEAAAKK (modifications not checked) [Compound 28] | 58.6
14 | WDEFDKKIEEVNKKIEESLKKIEESDKKLEEVNAEAAAKK (modifications not checked) [Compound 40] | 13.8
15 | WDEFDASIEEVNRRIEESLRRIEESDRRLEEVEAAAKK (modifications not checked) [Compound 43] | 16.8
16 | YDELVFDASQVNEKINQSLEKIRKSDELLHNVEAAAKK (modifications not checked) [Compound 30] | 94.8
17 | WDEFDASISQVNEKINQSLEEIRKSDELLHNVNALEAAAKK (modifications not checked) [Compound 38] | 128
18 | WDEFDKKIEEVNKKIEESLKKIEESDKKLEEVNEAAAKK (modifications not checked) [Compound 41] | 11.7

Target: T1, F protein of RSV A long virus strain …
Experiment: cell-based or functional assay

Row | Binder | IC50/nM, Cell fusion inhibition activity (plaque reduction, RSV A long strain, HEp-2 cells) [nM]
19 | FDASIEEVNRRIEESLRRIEESDRRLEEVNAEAAAKK (modifications not checked) [Compound 42] | 11.8
20 | LVKKIDEFDASISQVNEKINQSLEEIRKSDELLHNVGSGSGK (modifications not checked) [Compound 29] | 19.3
21 | WDEFDASISQVNEKINQSLEEIRKSDELLHNVNAGLGSGSGK (modifications not checked) [Compound 27] | 25.7
22 | DEFDASISQVNEKINQSLEEIRKSDELLHNEAAAKK (modifications not checked) [Compound 28] | 12.4
23 | WDEFDKKIEEVNKKIEESLKKIEESDKKLEEVNAEAAAKK (modifications not checked) [Compound 40] | 11.7
24 | WDEFDASIEEVNRRIEESLRRIEESDRRLEEVEAAAKK (modifications not checked) [Compound 43] | 18.3
25 | YDELVFDASQVNEKINQSLEKIRKSDELLHNVEAAAKK (modifications not checked) [Compound 30] | 14.9
26 | WDEFDASISQVNEKINQSLEEIRKSDELLHNVNALEAAAKK (modifications not checked) [Compound 38] | 14.6
27 | WDEFDKKIEEVNKKIEESLKKIEESDKKLEEVNEAAAKK (modifications not checked) [Compound 41] | 14.8

substrate: F protein of hMPV virus strain B1 (human metapneumovirus, strain B1); experiment: cell-based or functional assay

Row | Binder | EC50 (nM), plaque reduction, hMPV B1, Vero cells [nM]
28 | FDASIEEVNRRIEESLRRIEESDRRLEEVNAEAAAKK (modifications not checked) [Compound 42] | 10.1
29 | LVKKIDEFDASISQVNEKINQSLEEIRKSDELLHNVGSGSGK (modifications not checked) [Compound 29] | 11.1
30 | WDEFDASISQVNEKINQSLEEIRKSDELLHNVNAGLGSGSGK (modifications not checked) [Compound 27] | 10.5
31 | DEFDASISQVNEKINQSLEEIRKSDELLHNEAAAKK (modifications not checked) [Compound 28] | 13.8
32 | WDEFDKKIEEVNKKIEESLKKIEESDKKLEEVNAEAAAKK (modifications not checked) [Compound 40] | 7.47
33 | WDEFDASIEEVNRRIEESLRRIEESDRRLEEVEAAAKK (modifications not checked) [Compound 43] | 8.01
34 | YDELVFDASQVNEKINQSLEKIRKSDELLHNVEAAAKK (modifications not checked) [Compound 30] | 51.3
35 | WDEFDASISQVNEKINQSLEEIRKSDELLHNVNALEAAAKK (modifications not checked) [Compound 38] | 16.6
36 | WDEFDKKIEEVNKKIEESLKKIEESDKKLEEVNEAAAKK (modifications not checked) [Compound 41] | 9.46

substrate: F protein of hPIV Type 3 (hPIV3 C243) (human parainfluenza virus type 3, strain C243); experiment: cell-based or functional assay

Row | Binder | EC50 (nM), plaque reduction, hPIV3 C243, LLC-MK2 cells [nM]
37 | FDASIEEVNRRIEESLRRIEESDRRLEEVNAEAAAKK (modifications not checked) [Compound 42] | 18.9
38 | LVKKIDEFDASISQVNEKINQSLEEIRKSDELLHNVGSGSGK (modifications not checked) [Compound 29] | 26.3
39 | WDEFDASISQVNEKINQSLEEIRKSDELLHNVNAGLGSGSGK (modifications not checked) [Compound 27] | 27.2
40 | DEFDASISQVNEKINQSLEEIRKSDELLHNEAAAKK (modifications not checked) [Compound 28] | 54.4
41 | WDEFDKKIEEVNKKIEESLKKIEESDKKLEEVNAEAAAKK (modifications not checked) [Compound 40] | 22.2
42 | WDEFDASIEEVNRRIEESLRRIEESDRRLEEVEAAAKK (modifications not checked) [Compound 43] | 16.1
43 | YDELVFDASQVNEKINQSLEKIRKSDELLHNVEAAAKK (modifications not checked) [Compound 30] | 48.2
44 | WDEFDASISQVNEKINQSLEEIRKSDELLHNVNALEAAAKK (modifications not checked) [Compound 38] | 26.4
45 | WDEFDKKIEEVNKKIEESLKKIEESDKKLEEVNEAAAKK (modifications not checked) [Compound 41] | 71.1
